Measured values as given in publication PMC4470286 (Genes & Development, 2015).

B1: C-terminal Fob1 with a kinase tag (from a pMAL fusion) (domain or fragment, S. cerevisiae, UniProt O13329 430-566, looked up)
chain: ILHNNNIGNDNFEEEVQKQFDLTEKNYIDEYDDLAHDSSEGEFEPNTLTPEEKPPHNVDEDRIESTGVAAPMQGTEEPEKGDQKESDGASQVDQSVEITRPETSYYQTLESPSTKRQKLDQQGNGDQTRDFGTSMEL
modifications: 32P-labeled
B2: N-Fob1-GST, purified from yeast (domain or fragment, S. cerevisiae, UniProt O13329 1-429, looked up)
chain: MTKPRYNDVLFDDDDSVPSESVTRKSQRRKATSPGESRESSKDRLLILPSMGESYTEYVDSYLNLELLERGERETPIFLESLTRQLTQKIYELIKTKSLTADTLQQISDKYDGVVAENKLLFLQRQYYVDDEGNVRDGRNNDKIYCEPKHVYDMVMATHLMNKHLRGKTLHSFLFSHFANISHAIIDWVQQFCSKCNKKGKIKPLKEYKRPDMYDKLLPMERIHIEVFEPFNGEAIEGKYSYVLLCRDYRSSFMWLLPLKSTKFKHLIPVVSSLFLTFARVPIFVTSSTLDKDDLYDICEEIASKYGLRIGLGLKSSARFHTGGILCIQYALNSYKKECLADWGKCLRYGPYRFNRRRNKRTKRKPVQVLLSEVPGHNAKFETKRERVIENTYSRNMFKMAGGKGLIYLEDVNTFALANEADNSCNNNG
B3: Reb1 protein of Schizosaccharomyces pombe (natural protein, UniProt Q9P6H9 1-504, looked up)
chain: MDTSVLNPELQIHGFIGVDSLQSSRKRKNDFDDFPLNKGLKTNNNDYSGSIEPKFSPALSIKEDGKNDRNFEALMSLQAQDSNLSEQNTSIHLDALASSSIALGNDNVDSSAFLSKVNKGVNAMRNSTSNQTNDSILISPSEITNMDPFLKGSARWTAEHWDYLERRMQNFCQTYSLDHTQVADSLHEKRLHGPLSSLVKLLVQEMPSFTRRTILRHLRALYNIPGYEKYSRKNSSGRGDFGVQETAIISQEVHNFIMDQGWSEYQFCNQIWAGKCPKTIRMFYSNLYKKLSHRDAKSIYHHVRRAYNPFEDRCVWSKEEDEELRKNVVEHGKCWTKIGRKMARMPNDCRDRWRDVVRFGDKLKRNAWSLEEETQLLQIVAELRNREDLSSDINWTLVAQMLGTRTRLQCRYKFQQLTKAASKFELQENVWLLERIYDSLLNNGGKIHWENIVKEANGRWTRDQMLFQFINLKKMIPSYDNLPLLEATKSAIDDFKVVLSGFSN

What was measured:
[1] = molecular target: B2; test: pull-down
[2] = molecular target: T1, Fob1 (wild type) without GST, purified from yeast (S. cerevisiae, UniProt O13329 1-566); test: ELISA
T1 sequence (looked up): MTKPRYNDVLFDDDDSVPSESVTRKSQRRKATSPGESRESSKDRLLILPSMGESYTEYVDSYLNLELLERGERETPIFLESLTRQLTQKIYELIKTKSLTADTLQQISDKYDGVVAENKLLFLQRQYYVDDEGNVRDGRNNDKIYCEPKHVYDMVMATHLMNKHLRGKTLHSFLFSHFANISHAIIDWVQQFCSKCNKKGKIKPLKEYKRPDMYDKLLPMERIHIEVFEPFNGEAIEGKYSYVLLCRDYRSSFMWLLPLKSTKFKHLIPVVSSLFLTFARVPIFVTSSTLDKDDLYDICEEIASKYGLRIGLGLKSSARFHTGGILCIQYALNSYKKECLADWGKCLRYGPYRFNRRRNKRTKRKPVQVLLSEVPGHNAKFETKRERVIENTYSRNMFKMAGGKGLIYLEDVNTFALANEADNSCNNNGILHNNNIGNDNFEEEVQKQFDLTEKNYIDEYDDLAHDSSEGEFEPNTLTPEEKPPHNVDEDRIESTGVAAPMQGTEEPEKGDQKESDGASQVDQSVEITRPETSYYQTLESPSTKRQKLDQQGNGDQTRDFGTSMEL

crystal structure = molecular target: the molecule itself; test: crystal structure

Q: Does B1 bind [1]?
A: binds

Q: Does B2 bind [2]?
A: binds

Q: Which “stoichiometry N” value (crystal structure) does the source give for B3 here?
A: 2
